From paper PMC9482650, “Quantitative fragmentomics allow affinity mapping of interactomes” (Nature Communications, 2022)

Columns and labels:
Assay in all cases: holdup assay
Design in all cases: key: below the threshold = too weak to quantify, mostly under pKd 3.1 to 4
[1] = target: T1, DFNB31_2, Q9P202
T1 sequence (Q9P202 274-371, limits assumed, looked up): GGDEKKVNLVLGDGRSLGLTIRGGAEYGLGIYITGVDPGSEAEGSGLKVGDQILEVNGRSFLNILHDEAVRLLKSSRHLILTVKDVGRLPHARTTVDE

[2] = target: T2, DFNB31_3, Q9P202
T2 sequence (Q9P202 811-907, limits assumed, looked up): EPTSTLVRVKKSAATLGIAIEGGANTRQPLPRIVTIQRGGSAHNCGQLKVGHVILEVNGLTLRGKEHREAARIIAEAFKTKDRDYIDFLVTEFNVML

[3] = target: DLG1_1, Q12959
[4] = target: T3, DLG3_3, Q92796
T3 sequence (Q92796 374-475, limits assumed, looked up): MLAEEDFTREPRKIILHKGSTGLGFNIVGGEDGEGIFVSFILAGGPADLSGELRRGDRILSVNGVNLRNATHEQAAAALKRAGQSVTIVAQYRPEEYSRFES

[5] = target: T4, DVL3, Q92997
T4 sequence (Q92997 244-331, limits assumed, looked up): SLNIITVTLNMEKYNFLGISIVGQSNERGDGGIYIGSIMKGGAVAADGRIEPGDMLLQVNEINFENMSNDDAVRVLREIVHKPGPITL

[6] = target: FRMPD3, Q5JV73
[7] = target: T5, GRIP1_5, Q9Y3R0
T5 sequence (Q9Y3R0 568-668, limits assumed, looked up): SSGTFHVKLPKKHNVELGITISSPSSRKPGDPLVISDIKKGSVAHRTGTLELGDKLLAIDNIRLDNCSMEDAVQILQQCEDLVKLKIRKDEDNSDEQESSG

[8] = target: T6, GRIP1_7, Q9Y3R0
T6 sequence (Q9Y3R0 999-1096, limits assumed, looked up): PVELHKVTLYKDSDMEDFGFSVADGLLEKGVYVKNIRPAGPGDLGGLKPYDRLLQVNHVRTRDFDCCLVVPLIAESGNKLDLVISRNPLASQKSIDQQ

[9] = target: GRIP2_6, Q9C0E4
[10] = target: IL16_3, Q14005
[11] = target: Inadl_4, Q8NI35
[12] = target: LIMK2, P53671
[13] = target: T7, LIN7C, Q9NUP9
T7 sequence (Q9NUP9 88-185, limits assumed, looked up): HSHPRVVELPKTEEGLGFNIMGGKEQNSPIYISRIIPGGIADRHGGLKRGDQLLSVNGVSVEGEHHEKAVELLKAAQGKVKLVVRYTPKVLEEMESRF

[14] = target: LNX1_1, Q8TBB1
[15] = target: T8, LNX2_2, Q8N448
T8 sequence (Q8N448 334-432, limits assumed, looked up): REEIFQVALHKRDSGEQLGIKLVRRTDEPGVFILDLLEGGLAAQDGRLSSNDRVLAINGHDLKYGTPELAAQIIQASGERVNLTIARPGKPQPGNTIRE

[16] = target: T9, LNX2_3, Q8N448
T9 sequence (Q8N448 463-564, limits assumed, looked up): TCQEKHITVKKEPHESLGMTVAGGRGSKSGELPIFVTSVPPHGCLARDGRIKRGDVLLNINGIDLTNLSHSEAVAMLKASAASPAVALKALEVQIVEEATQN

[17] = target: MAGI1_2, Q96QZ7
[18] = target: MAGI2_3, Q86UL8
[19] = target: T10, MPP2, Q14168
T10 sequence (Q14168 180-250, limits assumed, looked up): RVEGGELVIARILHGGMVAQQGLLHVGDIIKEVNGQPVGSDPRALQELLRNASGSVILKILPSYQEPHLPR

[20] = target: T11, NHERF3_1, Q5T2W1
T11 sequence (Q5T2W1 4-100, limits assumed, looked up): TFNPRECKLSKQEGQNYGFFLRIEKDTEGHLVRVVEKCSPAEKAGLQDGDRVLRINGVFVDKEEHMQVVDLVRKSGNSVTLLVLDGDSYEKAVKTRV

[21] = target: NHERF4_1, Q86UT5-2
[22] = target: T12, PTPN13_1, Q12923
T12 sequence (Q12923 1088-1188, limits assumed, looked up): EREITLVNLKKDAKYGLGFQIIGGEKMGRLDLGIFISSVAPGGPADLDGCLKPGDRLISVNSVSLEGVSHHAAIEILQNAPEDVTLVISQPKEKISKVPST

[23] = target: PTPN3, P26045
[24] = target: SCRIB_2, Q14160
[25] = target: SCRIB_3, Q14160
[26] = target: TJP2_1, Q9UDY2
[27] = plain residues with an end cap or a label only (N-terminal biotin on a linker: ado-ado)
[28] = plain residues with an end cap or a label only (N-terminal biotin on a linker: (peg)3)

Chain of Inadl_4, Q8NI35 (Q8NI35 547-651): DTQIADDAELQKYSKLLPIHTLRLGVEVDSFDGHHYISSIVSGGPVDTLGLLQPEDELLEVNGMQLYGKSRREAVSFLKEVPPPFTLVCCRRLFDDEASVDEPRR
Chain of NHERF4_1, Q86UT5-2 (Q86UT5 other isoform, or with tags, fused parts or gaps): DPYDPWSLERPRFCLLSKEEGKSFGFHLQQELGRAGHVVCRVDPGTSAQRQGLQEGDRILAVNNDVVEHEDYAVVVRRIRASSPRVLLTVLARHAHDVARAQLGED
Chain of MAGI1_2, Q96QZ7 (Q96QZ7 456-580): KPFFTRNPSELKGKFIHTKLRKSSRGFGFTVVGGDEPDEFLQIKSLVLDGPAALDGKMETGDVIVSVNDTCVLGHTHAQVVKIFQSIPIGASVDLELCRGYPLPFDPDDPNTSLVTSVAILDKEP
Chain of TJP2_1, Q9UDY2 (Q9UDY2 24-128): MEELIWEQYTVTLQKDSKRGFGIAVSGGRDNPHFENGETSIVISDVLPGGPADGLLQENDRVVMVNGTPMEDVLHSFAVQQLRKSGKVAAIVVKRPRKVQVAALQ
Chain of LNX1_1, Q8TBB1 (Q8TBB1 261-371): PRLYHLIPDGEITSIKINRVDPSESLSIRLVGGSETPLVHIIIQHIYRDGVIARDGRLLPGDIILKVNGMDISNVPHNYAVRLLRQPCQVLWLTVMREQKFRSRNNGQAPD
Chain of MAGI2_3, Q86UL8 (Q86UL8 600-682): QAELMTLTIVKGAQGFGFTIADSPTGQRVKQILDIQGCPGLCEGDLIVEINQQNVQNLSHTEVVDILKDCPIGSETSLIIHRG
Chain of IL16_3, Q14005 (Q14005 1107-1207): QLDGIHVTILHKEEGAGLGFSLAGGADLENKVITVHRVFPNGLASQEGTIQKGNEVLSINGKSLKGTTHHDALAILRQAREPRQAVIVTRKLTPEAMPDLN
Chain of LIMK2, P53671 (P53671 143-248): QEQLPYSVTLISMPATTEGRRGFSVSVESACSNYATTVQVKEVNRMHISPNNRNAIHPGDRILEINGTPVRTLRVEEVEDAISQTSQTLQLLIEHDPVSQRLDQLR
Chain of SCRIB_2, Q14160 (Q14160 857-960): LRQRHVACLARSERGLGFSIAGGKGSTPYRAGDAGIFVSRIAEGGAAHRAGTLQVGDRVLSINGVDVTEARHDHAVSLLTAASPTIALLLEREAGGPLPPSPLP
Chain of GRIP2_6, Q9C0E4 (Q9C0E4 648-740): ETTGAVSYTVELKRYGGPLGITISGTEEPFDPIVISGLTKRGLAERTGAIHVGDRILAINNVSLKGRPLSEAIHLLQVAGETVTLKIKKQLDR
Chain of PTPN3, P26045 (P26045 505-587): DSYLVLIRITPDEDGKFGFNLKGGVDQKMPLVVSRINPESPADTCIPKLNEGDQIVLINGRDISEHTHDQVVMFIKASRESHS
Chain of SCRIB_3, Q14160 (Q14160 999-1103): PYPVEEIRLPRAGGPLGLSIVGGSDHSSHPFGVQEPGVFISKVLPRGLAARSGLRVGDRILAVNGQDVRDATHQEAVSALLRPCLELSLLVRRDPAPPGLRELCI
Chain of FRMPD3, Q5JV73 (Q5JV73 12-100): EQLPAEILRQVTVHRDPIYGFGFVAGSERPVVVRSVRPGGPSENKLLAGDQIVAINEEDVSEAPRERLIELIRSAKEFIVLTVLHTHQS

B1: SLCO1A2, P46721 (peptide)
chain: LKDDELKTKL
[1]; [27]
  pKd: below the threshold
[2]; [27]
  pKd: below the threshold
[3]; [27]
  pKd: below the threshold
[4]; [27]
  pKd: below the threshold
[5]; [27]
  pKd: below the threshold
[6]; [27]
  pKd: below the threshold
[7]; [27]
  pKd: below the threshold
[8]; [27]
  pKd: below the threshold
[9]; [27]
  pKd: below the threshold
[10]; [27]
  pKd: below the threshold
[11]; [27]
  pKd: below the threshold
[12]; [27]
  pKd: below the threshold
[13]; [27]
  pKd: below the threshold
[14]; [27]
  pKd: 3.72
[15]; [27]
  pKd: below the threshold
[16]; [27]
  pKd: below the threshold
[17]; [27]
  pKd: below the threshold
[18]; [27]
  pKd: below the threshold
[19]; [27]
  pKd: below the threshold
[20]; [27]
  pKd: 4.87
[21]; [27]
  pKd: 3.91
[22]; [27]
  pKd: below the threshold
[23]; [27]
  pKd: below the threshold
[24]; [27]
  pKd: below the threshold
[25]; [27]
  pKd: 3.73
[26]; [27]
  pKd: below the threshold

B2: PTGIR, P43119 (peptide)
chain: AEASVACSLC
[1]; [27]
  pKd: below the threshold
[2]; [27]
  pKd: 3.75
[3]; [27]
  pKd: below the threshold
[4]; [27]
  pKd: below the threshold
[5]; [27]
  pKd: below the threshold
[6]; [27]
  pKd: below the threshold
[7]; [27]
  pKd: below the threshold
[8]; [27]
  pKd: below the threshold
[9]; [27]
  pKd: below the threshold
[10]; [27]
  pKd: below the threshold
[11]; [27]
  pKd: below the threshold
[12]; [27]
  pKd: below the threshold
[13]; [27]
  pKd: below the threshold
[14]; [27]
  pKd: below the threshold
[15]; [27]
  pKd: 3.78
[16]; [27]
  pKd: below the threshold
[17]; [27]
  pKd: below the threshold
[18]; [27]
  pKd: below the threshold
[19]; [27]
  pKd: below the threshold
[20]; [27]
  pKd: 4.51
[21]; [27]
  pKd: 4.54
[22]; [27]
  pKd: below the threshold
[23]; [27]
  pKd: 3.54
[24]; [27]
  pKd: below the threshold
[25]; [27]
  pKd: below the threshold
[26]; [27]
  pKd: below the threshold

B3: HBV-HBc, P03193 (peptide)
chain: RRRRSQSRESQC
[1]; [28]
  pKd: below the threshold
[2]; [28]
  pKd: below the threshold
[3]; [28]
  pKd: 4.23
[4]; [28]
  pKd: 3.69
[5]; [28]
  pKd: below the threshold
[6]; [28]
  pKd: below the threshold
[7]; [28]
  pKd: below the threshold
[8]; [28]
  pKd: below the threshold
[9]; [28]
  pKd: below the threshold
[10]; [28]
  pKd: below the threshold
[11]; [28]
  pKd: below the threshold
[12]; [28]
  pKd: below the threshold
[13]; [28]
  pKd: 3.66
[14]; [28]
  pKd: below the threshold
[15]; [28]
  pKd: below the threshold
[16]; [28]
  pKd: below the threshold
[17]; [28]
  pKd: 4.07
[18]; [28]
  pKd: below the threshold
[19]; [28]
  pKd: below the threshold
[20]; [28]
  pKd: 4.44
[21]; [28]
  pKd: 3.86
[22]; [28]
  pKd: below the threshold
[23]; [28]
  pKd: 4.7
[24]; [28]
  pKd: below the threshold
[25]; [28]
  pKd: 4.03
[26]; [28]
  pKd: below the threshold
